# Source: patent US20150368353A1
# Target: podoplanin on human brain tumor cells (glioblastoma and medulloblastoma cells and xenografts) (human) (UniProt Q86YL7)
# Test: cell-based or functional assay
substance,measurement,value
dsNZ-1-PE38KDEL immunotoxin (scFv),"IC50 of cytotoxicity (inhibition of protein synthesis, 3H-leucine incorporation)",0.5 to 6.9 ng/mL
